Laboratory results published in paper PMC11808191.

Key:
[1] = target: recombinant protein HR212 (HR2–linker 1–HR1–linker 2–HR2) (SARS-CoV-2 Wuhan hu-1 strain); test: SPR; Biacore 3000; HR212 fixed to a flow cell of a CM5 sensor; HR1 at 12.5, 25, 50, 100, 200 nM flowed over; 25°C
[2] = target: recombinant protein HR212 (HR2–linker 1–HR1–linker 2–HR2) (SARS-CoV-2 Wuhan hu-1 strain); test: native gel or EMSA; native PAGE of purified HR212

Substance | Kd [1] | koff [1] | kon [1] | stoichiometry N [2]
HR1 (heptad repeat 1 domain of the SARS-CoV-2 spike S2 subunit) (domain or fragment) | 0.12 nM | 1.4e-05 s⁻¹ | 120000 M⁻¹ s⁻¹ | –
recombinant protein HR212 (HR2–linker 1–HR1–linker 2–HR2) | – | – | – | 3
